From patent publication US20260347474 (published 2026)
Numbering of substitutions follows the chain as printed. Values belong to the binder of their own block, whether it stands above or below them.

Biological target: human PD1-6His (human)
Assay: ELISA

Chain of human PD1-6His (human) (chain, as listed by the source): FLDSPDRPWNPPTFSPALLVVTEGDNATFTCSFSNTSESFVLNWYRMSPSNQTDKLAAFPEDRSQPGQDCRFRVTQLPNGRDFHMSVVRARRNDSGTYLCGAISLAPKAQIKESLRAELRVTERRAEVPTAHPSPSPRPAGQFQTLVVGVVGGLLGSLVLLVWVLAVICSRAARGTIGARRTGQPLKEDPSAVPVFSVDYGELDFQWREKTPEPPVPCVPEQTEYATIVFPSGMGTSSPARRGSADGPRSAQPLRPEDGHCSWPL

EC50: 0.11 nM
B1: P-1153 (antibody, V domains shown)
VH: QVQLVQSGVEVKKPGASVKVSCKASGYTFTNYYMYWVRQAPGQGLEWMGGINPSNGGTNYAQKFQGRVTLTTDSSTTTAYMELKSLQFDDTAVYYCARRDYRFDMGFDYWGQGTTVTVSS
VL: EIVLTQSPATLSLSPGERATLSCRASQGVSTSGYSYLAWYQQKPGQAPRLLIYLASYRASGVPARFSGSGSGTDFTLTISSLEPEDFAVYYCQHSRDLPLTFGGGTKVEIKR

EC50: 0.093 nM
B2: P-1148 (antibody, V domains shown)
VH: B1 VH with Y60F
VL: B1 VL with A38H

EC50: 0.065 nM
B3: P-1151 (antibody, V domains shown)
VH: B1 VH
VL: B1 VL with A38H

EC50: 0.088 nM
B4: P-1150 (antibody, V domains shown)
VH: B1 VH with Y60F
VL: B1 VL
